Measured values from the DeepSol protein solubility set.

assay: soluble on expression in E. coli; label from the status in PepcDB or PDB records

| Sequence | soluble on expression in E. coli |
| --- | --- |
| MKRIAFVFSTAPHGTAAGREGLDALLATSALTDDLAVFFIADGVFQLLPGQKPDAVLARDYIATFKLLGLYDIEQCWVCAASLRERGLDPQTPFVVEATPLEADALRRELANYDVILRF | soluble |
| MKRIGVFTSGGDAPGMNAAIRAVVRQAHALGVEVIGIRRGYAGMIQGEMVPLGVRDVANIIQRGGTILLTARSQEFLTEEGRAKAYAKLQAAGIEGLVAIGGDGTFRGALCLVEEHGMPVVGVPGTIDNDLYGTDYTIGFDTAVNTALEAIDRIRDTAASHERVFFIEVMGRHAGFIALDVGLAGGAEVIAVPEEPVDPKAVAEVLEASQRRGKKSSIVVVAEGAYPGGAAGLLAAIREHLQVEARVTVLGHIQRGGSPTAKDRILASRLGAAAVEALVGGASGVMVGEVEGEVDLTPLKEAVERRKDINRALLRLSQVLAL | soluble |
| MKRKFLIGSHGRLASGLQSSIDILAGMGQALETIDAYVDDSDYTSQIDDFIAGVAADEQGLIFTDLLGGSVNQKMVTAVMNSGKDNIFLITNSNLATLLSLVFLKPGEALTKDEIVTVINESQVQLVDLVPETNSEDDFFD | not soluble |
| MKRLAVILITLALVSSMCITNSNEKRENMKNAKVLMVIAPKDFRDEELFEPMAVFESNGLKVDVVSTTKGECVGMLGNKITVEKTIYDVNPDDYVAIVIVGGIGSKEYLWNNTKLIELVKEFYNKNKVVSAICLSPVVLARAGILKGKKATVYPAPEAIEELKKAGAIYEDRGVVVDGNVITAKSPDYARLFGLEVLKAIEKNNE | soluble |
| MKRLLKEKEGIRLEFKEARTALPGNLFETICSMLNHDGGDIVLGVSDDGTVAGVEHAKMETMVSNLVNLSNNPQKLDPPFILFPQTYEIDGKWLIHIQVPSSSQVHKTSGIVFNRSNDGDFRVTQPQQIAEIYNRKRMHYTEGIIYPGLRFEDFKVDLFPKVRNLIRSNNPNHPWLALTDQQMLEKAGLWKRDINSTQEGYTLAAALLLGKDEVIQQLLPFFKIDALVRIEDIYRYDDREYIQTNLIEAYEQLMTFVGKHLPDKFYMEGDQRVSLRNKIFREIAANLIVHREYMNAYPCTFIIYSDRVETENANNPHGEGPIDPEHFAPFPKNPTIIKFFMQLGRVDELGSGILNVNRFIKEYANGGSSQFIEGNVFKMIIPVAGEKIEGAIEGAIEGAIEGAIEGATKKVKDKLAILLKAIAENEGKKVPDYVVITKIPRSSIERYIKQLREANLIDFRDKATLIGGYYLTSKMKQKLKEKSLEHHHHHH | not soluble |
| MKRLLVIGIMYTMFFLIGNIHLHADERTNVKEITSLEEPTWIFQAGISKGKYHDRQDLGFILQRNTPLKVRQTNPNFKDKLTVRLLSNDSKNEKSIQVGNEWITIQGDTPLVPFIDTPYGEEPALLEYQVGNESATKPLPIYKQQGSVSQFFSTWDQFDGEYALIQGESFQLFIPKKDKELVRSLKDFQSLDELIAYYEDIFAMYDSIIGLDGSTVENKKSQNRYFLKADISGAGGAYYGANWTANSTDSTKMWLDKLSWGTLHEIAHGYQAGFDNQGIFTGEVSNNLFGVQYQYSKYGKKADQVGWLFNFGKKEQVERNLYNALMKENKNYDDLDLRQKLILLTMAKQKAGDEAFAKMYQGYRKLASNAAFKKGDHSLPDLMNQYYSENVQVDFTPVFERWGFKLNHKQIEMNRAKGYPAVTSLAYIVPESQLAKARALVDPDIPINSNFEIVRNQQIASLGLKGNLHIHLNTNEIDTLKGGKIKLKEGNTVIQEKTIETADINLQDVPNGIYTVEISGGKTDSMYHFSTYYAYVKEKDNSLTIDVNEMKVSNLVNETIQFLGLGDDQFAELNTDLEQERAVFTVTTKTPHSYYAGEKYASIELFNEKGEKIYTKEMEGTNVTVVKDIIPLKEGYRIKIYHDEVKKRLTSKATIINPMNKTNEIIMTKWGLKNTYLKNNPEENLMKRIDEEMEVIISNPLLKEIPMQKLEMKKNVWMAINMLSEPQKITYINKYKDSLYNE | not soluble |
| MKRLMFIGPSQCGKTSLTQSLRGEALHYKKTQAIEWSPMAIDTPGEYLENRCLYSALLTSACEADVIALVLNADAQWSPFSPGFTAPMNRPTIGLVTKADLAEPQRISLVAEWLTQAGAQQIFITSALNNSGLDAVLDFLNSKEPLCLTKLEHHHHHH | soluble |
| MKRSAINDILGHTRQFFSQHDVHLPPFASFSPAQWQQLDTAAWEEVFDLKLGWDVTAFGRNNFAAHGLTLFTLRNGSAKGMPYVKCYAEKIMHVRDAQVTPMHFHWRKREDIINRGGGNLIVELWNADSNEQTADSDITVVIDGCRQKHTAGSQLRLSPGESICLPPGLYHSFWAEAGFGDVLVGEVSSVNDDDHDNHFLQPLDRYNLIDEDEPAQLVLCNEYRQFR | soluble |
| MKSLESMEQFQQLKNEENVVFMFSAEWCPDCRFVDPFMPEVEEKYSDFSFYYVDRDEFIDLCVKLDVFGIPSFVAYNKGEETGRYVNKDRKTQEQIEEFIEGLK | not soluble |
| MKSLETMARYKKELTECARNLKLPFLAEHLDEILHEAQEKQQTYSEFLSTCLMRELRDKERRSYLTRLKFAGLPARYDLDLYDFSRTEGIDQRQMRELRELVWIRRTYNLLLVGDSGTGKTFIASGLIHEAVKAGYKAYLLTLEELFVCLKTKEISRPAMKTYKRIMKAQLLAIDDVTLFPLKGEDVLLLFKLVNCVQGKTSLIITASRDLTGWLEMAGDEVCAAALLDRLLYCCEIIRLSGKSYRMENRKTIFSNQQIGTASLEHHHHHH | not soluble |
| MKSLQSSLGNIETFKLDELCPKHEIQLTQIKGERHVVVGWNENGEAIKEVRCIPPYCEQCQEEQKKQDEEDAIADNLNAKLYMQTYNVLMSNKSYVADEFKTKTFDDFNAVTSEEKRFLEFAKGQVQKYLDGMRGNTLITGGTGIGKTLLSVAIAKGINEGYKTKGEPKSVLFVSLTEMIKQIKEGWNYGKGATLTEFEATELMKSVDYLIIDDLGAKNAVIKPKSDWEQDLLFDVLNNRENTIFNTNLDSDELKIVYNERNYSRILKGLEGNTFKAFGIKYKRYSLNQLKSNM | not soluble |
| MKSVVSSRETRSESNKSRRTFASTEWNKIIRETLYLETIYIPLDATSHSPDIIFQLQSPVEPKVLTVGVACKGRWKSEGIGWSDIIDEAKKFLDPVYDQVLSSAMDYHHCMLIIVSTKLSLNVSNELGNQSRCYSSGMFIRGDSFKVPDNCELVILCERDVQMLIDEEILSGLERAFHVSRSPTFWDFRLDLLVNLQ | not soluble |
| MKSYLVGGAVRDALLGLPVKDRDWVVVGATPQQMLDAGYQQVGRDFPVFLHPQSREEYALARTERKSGAGYTGFTCYAAPDVTLEADLLRRDLTVNALAQDADGAIIDPYGGQNDLRKRLLRHVSPAFSEDPLRVLRVARFAARYAHLGFRIAEETQALMAAIVEAGELAHLTPERVWKETESALTTRNPQVFFQTLRDCQALKVLFPEIDALYGVPAPAKWHPEIDTGLHTLMTVTMAAMLSPDVDVRFATLCHDLGKGLTPKALWPRHHGHGPAGVKLVEQLCARLRVPNDIRDLAKLVAEYHDLIHTLPILQPKTLVKLFDSIDAWRKPQRVQQIALTSEADVRGRTGFEASDYPQGRLLLEAWEVAQSVSTKEVVAAGFKGAEIREELTRRRIAAVAQWKEQRCPQPQG | not soluble |
| MKTARLLSSGALALSLLAGSVTAAVSPDEAAKLGSSLTPIGAQKEGNADGSIPAWTGGLAASAGKVDGKGFLSDPFADEKPLFTITAQNVEQYKDKLSDGQLAMFKRYPETYRIPVYKTHRTVALPAEIDEAVKQSALNVQPINDGNGLSNFEKSRYYAFPIPKNGVEVLWNHITRYRGGNLKRTIVQATPQTNGSFTPIRFEESVAFPQNMPDLDQSKAANILTFFKQQVTAPARLAGNVLLVHETLDQVKEPRLAWVYNAGQRRVRRAPQVAYDGPGTAADGLRTSDNFDMFSGAPDRYDWKLVGKREMYIPYNAYKLNDPTLKYSDIIKAGHINQDLTRYELHRVWEVVGTVKPGERHIYAKRHMYIDEDSWQIALVDHYDGRGQLWRVGEGHAQYHYDQKVAGYTLEALYDVIAGRYLALGMNNEEKRGYEFGFKASSADYTPAALRNAGVR | not soluble |
| MKTFNAGRNADTEDELWVVEHPPVFTQGLAGKPEHLLIRDDIPVVQIDRGGQITYHGPGQLVVYTMIDFKRRKTSVRNIVSALENSIIATLAEYGIEAAADPKRPGVYVGERKIASLGLRIKNGSVYHGLALNVNMDLSPFTHINPCGYAGMEMTQIADFVQPCPTPDEVAAKLTAHLETQFTPKADNNE | not soluble |
| MKTGKELKPGTVLRIDNDPWLVQKAEFTKSGRNSAIMKTKLKNLLTGYKTETVYGADDKLDDVILDRKEATLSFINGDEYTFMDTTDYTMYELNAEDIEAVLPYIEEGMEDVCEAVFFEGRLVSVELPTTISRKVVYTENAARGDTSGKVMKPAKLANGTEISVADFIQIDEWIDIDTRDNSFKGRSKKLEHHHHHH | soluble |
| MKTIRRYDVNEDRGHTGLVEAGDFYYLNYCVGNVGQDIESQINGAFDEMERRLALVGLTLDAVVQMDCLFRDVWNIPVMEKMIKERFNGRYPARKSIQTEFAHHGGPQGLLFQVDGVAYSKHISMT | soluble |
| MKTLTEIKQTPKGIIKADESFNQVKDKIRLPRRILYLGCGSSHFLAKLLAMVTNMHGGTGVALPCSEFLYSKEAYPIGKPELVVGISRSGETTEVLLALEKINTPKLGISAYESSLTRACDYSLVVPTIEESVVMTHSFTAFYFAYLQLLRHSYGLPLLEATEVAKATEKALEYENYIKEIVEDFDFQNVIFLGSGLLYPVALEASLKMKEMAIFWSEAYPTFEVRHGFKAIADENTLVVLMAQELFEWHKKLVNEFKGQRARVLLISNSQQEFGQDYSIEVPRLSKDATPIPYLPVVQLLSYYKAVARGLNPDNPRFLDKVVRWLEHHHHHH | soluble |
| MKTLVVALGGNALLQRGEALTAENQYRNIASAVPALARLARSYRLAIVHGNGPQVGLLALQNLAWKEVEPYPLDVLVAESQGMIGYMLAQSLSAQPQMPPVTTVLTRIEVSPDDPAFLQPEKFIGPVYQPEEQEALEAAYGWQMKRDGKYLRRVVASPQPRKILDSEAIELLLKEGHVVICSGGGGVPVTDDGAGSEAVIDKDLAAALLAEQINADGLVILTDADAVYENWGTPQQRAIRHATPDELAPFAKADGSMGPNVTAVSGYVRSRGKPAWIGALSRIEETLAGEAGTCISL | not soluble |
| MKTMTLYVCQNCGYQSAKWLGKCPDCSAWNSLVEEVRGKGKGPSAPLSGVAPVPICDVAGEAEERLPCGISEFDRVLGGGLVAGSVILIGGDPGIGKSTLLLQVMDHLARTVGPVLYVSGEESARQARLRGERLGIRAKELLILAETALETVLAQIGAVAPRAVVIDSIQTMYAPGLESAPGSVSQVRECAGRLMVAAKRSAIPTFIVGHVTKDGSIAGPRVLEHMVDTVLYFEGDRGHAFRILRAVKNRFGSTNEIGVFEMKEGGLCEVRNPSEIFLSERPLGVSGSAVVTTIEGSRPLLVELQALVTPSSLGVPRRTTLGVDANRLALLVAVLDKKVGLHMAGQDIFLNAAGGARVSEPAADLGMVAALASSHLDKVIDPQTVVVGEVGLAGEVRAITQPETRVREAAKLGFTRAVIPAGSLKQVTAVEGMEVIGVKSVEEALDRLLLEHHHHHH | not soluble |
| MKTNFKQKIIEQARSEGLQVTALREQVLDIVLQQSGVIKAYNVLSQMQQQSEGVLAPPTAYRALDFWAEQGVLHKVAAVNGYILCSHAQHECDDHCHDHEEAEAHHSAFILVCTECGTADEQTLSHEWAALRAGVAESGFALKEEHVVLTGICKKCQQ | not soluble |
